Laboratory results from patent US20050106100.

How the values were obtained:
[1] = target: T1, Ac-PLG˜Hphe-OL-Ambh-Hynic
T1 chain: PLGXXL

[2] = target: T2, Ac-PLG˜Hphe-YL-Ahxh-Hynic (not fully specified)
T2 chain: PLGXYL

Ac-NGlu-POG˜Hphe-L-Hynic = target: T3, Ac-NGlu-POG˜Hphe-L-Hynic (not fully specified)
T3 chain: XPXGXL

[3] = target: T4, Ac-NGlu-PLG˜Hphe-YL-Ambh-Hynic (not fully specified)
T4 chain: XPLGXYL

Ac-PLG˜Hphe-YL-Hynic = target: T5, Ac-PLG˜Hphe-YL-Hynic
T5 chain: PLGXYL

Ac-POG˜Hphe-L-Hynic = target: T6, Ac-POG˜Hphe-L-Hynic
T6 chain: PXGXL

Ac-POG˜Hphe-L-Ambh-Hynic = target: T7, Ac-POG˜Hphe-L-Ambh-Hynic
T7 chain: PXGXL

[4] = target: T8, Ac-Csa-PLG˜Hphe-YL-Ambh-Hynic (not fully specified)
T8 chain: XPLGXYL

B1: mouse MMP9 (protein)
chain: FQTFKGLKWDHHNITYWIQNYSEDLPRDMIDDAFARAFAVWGEVAPLTFTRVYGPEADIVIQFGVAEHGDGYPFDGKDGLLAHAFPPGAGVQGDAHFDDDELWSLGKGVVIPTYYGNSNGAPCHFPFTFEGRSYSACTTDGRNDGTPWCSTTADYDKDGKFGFCPSERLYTEHGNGEGKPCVFPFIFEGRSYSACTTKGRSDGYRWCATTANYDQDKLYGFCPTRVDATVVGGNSAGELCVFPFVFLGKQYSSCTSDGRRDGRLWCATTSNFDTDKKWGFCPDQGYSLFLVAAHEFGHALGLDHSSVPEALMYPLYSYLEGFPLNKDDIDGIQYLYGRGSKPDPRPPATTTTEPQPTAPPTMCPTIPPTAYPTVGPTVGPTGAPSPGPTSSPSPGPTGAPSPGPTAPPTAGSSEASTESLSPADNPCNVDVFDAIAEIQGALHFFKDGWYWKFLNHRGSPLQGPFLTARTWPALPATLDSAFEDPQTKRVFFFSGRQMWVYTGKTVLGPRSLDKLGLGPEVTHVSGLLPRRLGKALLFSKGRVWRFDLKSQKVDPQSVIRVDKEFSGVPWNSHDIFQYQDKAYFCHGKFFWRVSFQNEVNKVDHEVNQVDDVGYVTYDLLQCP
[1]
  Kcat/Km: 48000 M⁻¹ s⁻¹
[2]
  Kcat/Km: > 100000 M⁻¹ s⁻¹
Ac-NGlu-POG˜Hphe-L-Hynic
  Kcat/Km: 571 M⁻¹ s⁻¹
[3]
  Kcat/Km: > 100000 M⁻¹ s⁻¹
Ac-PLG˜Hphe-YL-Hynic
  Kcat/Km: > 100000 M⁻¹ s⁻¹
Ac-POG˜Hphe-L-Hynic
  Kcat/Km: 897 M⁻¹ s⁻¹
Ac-POG˜Hphe-L-Ambh-Hynic
  Kcat/Km: 14400 M⁻¹ s⁻¹
[4]
  Kcat/Km: 31000 M⁻¹ s⁻¹
